The labels stand for the following.
B1: library; numbered along this chain (parent)
chain: MRKPRAAVGSGHRKQAASQEGRQKHAKNNSQAKPSACDGLARQPEEVVLQASVSSYHLFRDVAEVTAFRGSLLSWYDQEKRDLPWRRRAEDEMDLDRRAYAVWVSEVMLQQTQVATVINYYTGWMQKWPTLQDLASASLEEVNQLWAGLGYYSRGRRLQEGARKVVEELGGHMPRTAETLQQLLPGVGRYTAGAIASIAFGQATGVVDGNVARVLCRVRAIGADPSSTLVSQQLWGLAQQLVDPARPGDFNQAAMELGATVCTPQRPLCSQCPVESLCRARQRVEQEQLLASGSLSGSPDVEECAPNTGQCHLCLPPSEPWDQTLGVVNFPRKASRKPPREESSATCVLEQPGALGAQILLVQRPNSGLLAGLWEFPSVTWEPSEQLQRKALLQELQRWAGPLPATHLRHLGEVVHTFSHIKLTYQVYGLALEGQTPVTTVPPGARWLTQEEFHTAAVSTAMKKVFRVYQGQQPGTCMGSKRSQVSSPCSRKKPRMGQQVLDNFFRSHISTDAHSLNSAAQ

Variants of B1 are the subject of this data set. The experiment in a line: 8OG:A repair function score (normalized; synonymous = 0, nonsense = -1) (normalized log-likelihood score); higher = more repair activity (WT-like). The conditions noted are these: with 8OG:A DNA repair reporter (GFP) in HEK-293 MUTYH KO cells. In short, it runs like this: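 Lentiviral MUTYH cDNA NNN codon-scan libraries in HEK-293 MUTYH knockout cells (10 pg/ml doxycycline) were co-transfected with an 8OG:A GFP repair reporter plus mCherry. At 72 h, viable mCherry+ cells were sorted into GFP+ (repair) and GFP− bins, three replicates per tile, then tile amplicons were sequenced. Per-tile Rosace fitness scores became a normalized repair function score anchored on synonymous and nonsense distributions. Synonymous medians were set to 0 and nonsense to -1; variants under 300 counts per million at the start were removed.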
Turning to MRKPRAAVGSGHRKQAASQEGRQKHAKNNSQAKPSACDGLARQPEEVVLQASVSSYHLFRDVAEVTAFRGSLLSWYDQEKRDLPWRRRAEDEMDLDRRAYAVWVSEVMLQQTQVATVINYYTGWMQKWPTLQDLASASLEEVNQLWAGLGYYSRGRRLQEGARKVVEELGGHMPRTAETLQQLLPGVGRYTAGAIASIAFGQATGVVDGNVARVLCRVRAIGADPSSTLVSQQLWGLAQQLVDPARPGDFNQAAMELGATVCTPQRPLCSQCPVESLCRARQRVEQEQLLASGSLSGSPDVEECAPNTGQCHLCLPPSEPWDQTLGVVNFPRKASRKPPREESSATCVLEQPGALGAQILLVQRPNSGLLAGLWEFPSVTWEPSEQLQRKALLQELQRWAGPLPATHLRHLGEVVHTFSHIKLTYQVYGLALEGQTPVTTVPPGARWLTQEEFHTAAVSTAMKKVFRVYQGQQPGTCMGSKISQVSSPCSRKKPRMGQQVLDNFFRSHISTDAHSLNSAAQ [R482I], the “8OG:A repair function score” value is -0.00811.
As to MRKPRAAVGSGHRKQAASQEGRQKHAKNNSQAKPSACDGLARQPEEVVLQASVSSYHLFRDVAEVTAFRGSLLSWYDQEKRDLPWRRRAEDEMDLDRRAYAVWVSEVMLQQTQVATVINYYTGWMQKWPTLQDLASASLEEVNQLWAGLGYYSRGRRLQEGARKVVEELGGHMPRTAETLQQLLPGVGRYTAGAIASIAFGQATGVVDGNVARVLCRVRAIGADPSSTLVSQQLWGLAQQLVDPARPGDFNQAAMELGATVCTPQRPLCSQCPVESLCRARQRVEQEQLLASGSLSGSPDVEECAPNTGQCHLCLPPSEPWDQTLGVVNFPRKASRKPPREESSATCVLEQPGALGAQILLVQRPNSGLLAGLWEFPSVTWEPSEQLQRKALLQELQRWAGPLPATHLRHLGEVVHTFSHIKLTYQVYGLALEGQTPVTTVPPGARWLTQEEFHTAAVSTAMKKVFRVYQGQQPGTCMGSKLSQVSSPCSRKKPRMGQQVLDNFFRSHISTDAHSLNSAAQ [R482L], the “8OG:A repair function score” value worked out at 0.00831.
Regarding MRKPRAAVGSGHRKQAASQEGRQKHAKNNSQAKPSACDGLARQPEEVVLQASVSSYHLFRDVAEVTAFRGSLLSWYDQEKRDLPWRRRAEDEMDLDRRAYAVWVSEVMLQQTQVATVINYYTGWMQKWPTLQDLASASLEEVNQLWAGLGYYSRGRRLQEGARKVVEELGGHMPRTAETLQQLLPGVGRYTAGAIASIAFGQATGVVDGNVARVLCRVRAIGADPSSTLVSQQLWGLAQQLVDPARPGDFNQAAMELGATVCTPQRPLCSQCPVESLCRARQRVEQEQLLASGSLSGSPDVEECAPNTGQCHLCLPPSEPWDQTLGVVNFPRKASRKPPREESSATCVLEQPGALGAQILLVQRPNSGLLAGLWEFPSVTWEPSEQLQRKALLQELQRWAGPLPATHLRHLGEVVHTFSHIKLTYQVYGLALEGQTPVTTVPPGARWLTQEEFHTAAVSTAMKKVFRVYQGQQPGTCMGSKHSQVSSPCSRKKPRMGQQVLDNFFRSHISTDAHSLNSAAQ [R482H], the “8OG:A repair function score” value was -0.0234.
Take MRKPRAAVGSGHRKQAASQEGRQKHAKNNSQAKPSACDGLARQPEEVVLQASVSSYHLFRDVAEVTAFRGSLLSWYDQEKRDLPWRRRAEDEMDLDRRAYAVWVSEVMLQQTQVATVINYYTGWMQKWPTLQDLASASLEEVNQLWAGLGYYSRGRRLQEGARKVVEELGGHMPRTAETLQQLLPGVGRYTAGAIASIAFGQATGVVDGNVARVLCRVRAIGADPSSTLVSQQLWGLAQQLVDPARPGDFNQAAMELGATVCTPQRPLCSQCPVESLCRARQRVEQEQLLASGSLSGSPDVEECAPNTGQCHLCLPPSEPWDQTLGVVNFPRKASRKPPREESSATCVLEQPGALGAQILLVQRPNSGLLAGLWEFPSVTWEPSEQLQRKALLQELQRWAGPLPATHLRHLGEVVHTFSHIKLTYQVYGLALEGQTPVTTVPPGARWLTQEEFHTAAVSTAMKKVFRVYQGQQPGTCMGSKKSQVSSPCSRKKPRMGQQVLDNFFRSHISTDAHSLNSAAQ [R482K]: the “8OG:A repair function score” value amounted to 0.021.
As for MRKPRAAVGSGHRKQAASQEGRQKHAKNNSQAKPSACDGLARQPEEVVLQASVSSYHLFRDVAEVTAFRGSLLSWYDQEKRDLPWRRRAEDEMDLDRRAYAVWVSEVMLQQTQVATVINYYTGWMQKWPTLQDLASASLEEVNQLWAGLGYYSRGRRLQEGARKVVEELGGHMPRTAETLQQLLPGVGRYTAGAIASIAFGQATGVVDGNVARVLCRVRAIGADPSSTLVSQQLWGLAQQLVDPARPGDFNQAAMELGATVCTPQRPLCSQCPVESLCRARQRVEQEQLLASGSLSGSPDVEECAPNTGQCHLCLPPSEPWDQTLGVVNFPRKASRKPPREESSATCVLEQPGALGAQILLVQRPNSGLLAGLWEFPSVTWEPSEQLQRKALLQELQRWAGPLPATHLRHLGEVVHTFSHIKLTYQVYGLALEGQTPVTTVPPGARWLTQEEFHTAAVSTAMKKVFRVYQGQQPGTCMGSKMSQVSSPCSRKKPRMGQQVLDNFFRSHISTDAHSLNSAAQ [R482M], the figure is -0.00466; as for MRKPRAAVGSGHRKQAASQEGRQKHAKNNSQAKPSACDGLARQPEEVVLQASVSSYHLFRDVAEVTAFRGSLLSWYDQEKRDLPWRRRAEDEMDLDRRAYAVWVSEVMLQQTQVATVINYYTGWMQKWPTLQDLASASLEEVNQLWAGLGYYSRGRRLQEGARKVVEELGGHMPRTAETLQQLLPGVGRYTAGAIASIAFGQATGVVDGNVARVLCRVRAIGADPSSTLVSQQLWGLAQQLVDPARPGDFNQAAMELGATVCTPQRPLCSQCPVESLCRARQRVEQEQLLASGSLSGSPDVEECAPNTGQCHLCLPPSEPWDQTLGVVNFPRKASRKPPREESSATCVLEQPGALGAQILLVQRPNSGLLAGLWEFPSVTWEPSEQLQRKALLQELQRWAGPLPATHLRHLGEVVHTFSHIKLTYQVYGLALEGQTPVTTVPPGARWLTQEEFHTAAVSTAMKKVFRVYQGQQPGTCMGSKNSQVSSPCSRKKPRMGQQVLDNFFRSHISTDAHSLNSAAQ [R482N], -0.0127.

The values are drawn from the supplement of paper PMC11908140.
